The values that follow are results of earlier work, collected in article PMC3042137.

For orientation: Kd means a measure of binding affinity in units of concentration.

This data set has as its target JIP1 (L-pepJIP1) (Homo sapiens) (UniProt Q9UQF2). Briefly: ITC. In general terms: Isothermal titration calorimetry measures the heat released or taken up as one component is titrated into another.
UniProt Q9UQF2, sequence (Q9UQF2 whole entry): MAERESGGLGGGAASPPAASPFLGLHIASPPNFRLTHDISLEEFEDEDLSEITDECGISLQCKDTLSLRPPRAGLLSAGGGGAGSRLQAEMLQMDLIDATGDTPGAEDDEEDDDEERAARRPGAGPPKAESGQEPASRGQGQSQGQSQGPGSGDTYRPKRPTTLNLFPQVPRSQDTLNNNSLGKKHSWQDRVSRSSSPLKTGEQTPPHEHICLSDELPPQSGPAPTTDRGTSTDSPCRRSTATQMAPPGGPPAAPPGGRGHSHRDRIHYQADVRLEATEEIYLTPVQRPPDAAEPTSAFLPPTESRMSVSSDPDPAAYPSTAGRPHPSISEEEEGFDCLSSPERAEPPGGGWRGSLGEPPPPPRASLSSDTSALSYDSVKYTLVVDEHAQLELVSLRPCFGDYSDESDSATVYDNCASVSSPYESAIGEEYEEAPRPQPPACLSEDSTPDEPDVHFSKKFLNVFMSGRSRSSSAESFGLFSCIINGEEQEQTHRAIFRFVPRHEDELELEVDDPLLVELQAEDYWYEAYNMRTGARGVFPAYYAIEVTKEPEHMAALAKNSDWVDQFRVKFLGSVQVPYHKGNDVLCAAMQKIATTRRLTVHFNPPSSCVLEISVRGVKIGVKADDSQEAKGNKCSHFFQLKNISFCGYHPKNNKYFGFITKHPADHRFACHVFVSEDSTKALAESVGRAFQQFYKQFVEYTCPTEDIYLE

For the substance JNK1 (from UniProt P45983), the Kd was 420 nM.
